This data set addresses T1, HMGD-M13A HMG box (D74-M13A) (Drosophila melanogaster, UniProt Q05783 1-74, M13A).
T1 sequence: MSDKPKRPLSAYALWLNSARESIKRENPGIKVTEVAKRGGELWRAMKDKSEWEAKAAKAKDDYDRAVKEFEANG
In words: X-ray crystallography.

B1: GCGATATCGC decamer duplex (dsDNA)
DNA 1: GCGATATCGC
DNA 2: GCGATATCGC
Take B1: the binding result was “binds”.

The record behind these values is publication PMC2962916.
